Results from patent US20210070855A1 (NANJING LEGEND BIOTECH, published 2021).
Residue numbers refer to the chain shown, from its start.

B1: 98G5F6 (antibody, V domains shown)
VH: QVQLQQSGPQLVRPGASVKISCKASGYSFTNYWMHWMKQRPGQGLEWIGMIDPSDSETRLNQQFKDKATLTVDKSSSTAYMQLSSPTSEDSAVYYCARLGRYYFDFWGQGTTLTVSS
VL: NIVMTQSPKSMSVSVGERVTLSCRASEIVGTYVSWYQQKPEQSPKLLIYGASNRFTGVPDRFTGSRSATDFSLTISNVQAEDLADYLCGQSYDSPYTFGGGTKLEIK
notes: purified murine anti-CD47 hybridoma antibody; same VH and VL as 98G5F11; also called 05-98G5F6
B2: 55F2C4 (antibody, V domains shown)
VH: B1 VH with T71A, F106Y
VL: B1 VL with S12Y, S22I, F55Y
notes: also called 01-55F2C4
B3: 98E2E12 (antibody, V domains shown)
VH: B1 VH with Y32H, Y94F, F106Y
VL: B1 VL with E27D, F55Y
notes: purified murine anti-CD47 hybridoma antibody; same VH and VL as 98E2E7; also called 04-98E2E12
B4: 112E5D9 (antibody, V domains shown)
VH: B1 VH with Y32N, K65R, S75T, F106Y, Q109L
VL: B1 VL with L21M, S22N, S52F, F55Y, A68G, T74N
notes: purified murine anti-CD47 hybridoma antibody; same VH and VL as 112E5F2 and 112E5H7; also called 10-112E5D9
B5: 112E5F2 (antibody, V domains shown)
VH: B1 VH with Y32N, K65R, S75T, F106Y, Q109L
VL: B1 VL with L21M, S22N, S52F, F55Y, A68G, T74N
notes: purified murine anti-CD47 hybridoma antibody; same VH and VL as 112E5D9 and 112E5H7; also called 11-112E5F2
B6: 108C10A6 (antibody, V domains shown)
VH: QMQLQQSGPQLVRPGASVKISCKTSGYSFTHHWIHWMKQRPGQGLEWIGMIDPSDSETRLSQKFKDKATLTVDASSSTAYMQLNSPTSEDSALYFCARLGRYYFDYWGQGTTLTVSS
VL: NIVMTQSPRSMSMSVGERVTLSCKASENVGTYISWYQQKPDQSPKLLIYGASNRYTGVPDRFTGSGSGTDFTLTISTVQAEDLADYHCGESYGHLYTFGGGTKLEIK
notes: also called murine anti-CD47 antibody 108C10A6; 108C10A6/108C10F5
B7: 107F11B11 (antibody, V domains shown)
VH: EVQLQQSGAEFVKPGASVKLSCTASGFNIEDTYMHWVKQRPEQGLEWIGMIDPANGKTKYGPRFQDKATVTADTSSNTANLQLSSLTSEDTAVYYCADGIGYYVGAMDYWGQGTSVTVSS
VL: DIQMNQSPSSLSASLGDTITITCHASQNINVWLSWYQQKPGNIPKLLIYKASNLHTGVPSRFSGSGSGTGFTLTISSLQPEDIATYYCQQGHSYPYTFGGGTKLEIK
notes: purified murine anti-CD47 hybridoma antibody; same VH and VL as 107F11C4 and 107F11F10; also called 07-107F11B11
B8: 107F11C4 (antibody, V domains shown)
VH: B7 VH
VL: B7 VL
notes: purified murine anti-CD47 hybridoma antibody; same VH and VL as 107F11B11 and 107F11F10
B9: 112E5H7 (antibody, V domains shown)
VH: B1 VH with Y32N, K65R, S75T, F106Y, Q109L
VL: B1 VL with L21M, S22N, S52F, F55Y, A68G, T74N
notes: purified murine anti-CD47 hybridoma antibody; same VH and VL as 112E5D9 and 112E5F2; also called 12-112E5H7
B10: 98E2E7 (antibody, V domains shown)
VH: B1 VH with Y32H, Y94F, F106Y
VL: B1 VL with E27D, F55Y
notes: purified murine anti-CD47 hybridoma antibody; same VH and VL as 98E2E12; also called 03-98E2E7
B11: 98G5F11 (antibody, V domains shown)
VH: B1 VH
VL: B1 VL
notes: purified murine anti-CD47 hybridoma antibody; same VH and VL as 98G5F6; also called 06-98G5F11
B12: 108C10F5 (antibody, V domains shown)
VH: B6 VH
VL: B6 VL
notes: purified murine anti-CD47 hybridoma antibody; separate subclone with its own curves; same VH and VL as 108C10A6; also called 09-108C10F5
B13: 108VH4.M4_VL1.M1-hIgG1 (antibody)
heavy: not shown
light: EIVLTQSPATLSLSPGERATLSCRASENVGTYISWYQQKPGQAPRLLIYGASNRYTGIPARFSGSGSGTDFTLTISSLEPEDFAVYYCGESYGHLYTFGGGTKVEIKRTVAAPSVFIFPPSDEQLKSGTASVVCLLNNFYPREAKVQWKVDNALQSGNSQESVTEQDSKDSTYSLSSTLTLSKADYEKHKVYACEVTHQGLSSPVTKSFNRGEC
notes: Humanized 108C10A6, human IgG1 with kappa light chain; also called 108VH4.M4_VL1.M1-hlgG1; 108VH4.M4_VL1.M1-hIgG1-Ka
B14: 108VH4.M4_VL1.M1-hIgG2 (antibody)
heavy: EVQLVQSGAEVKKPGSSVKVSCKASGYSFTHHWIHWVRQAPGQGLEWMGMIDASDSETRLSQKFKDRVTITADKSTSTAYMELSSLRSEDTAVYYCARLGRYYFDYWGQGTTVTVSSASTKGPSVFPLAPCSRSTSESTAALGCLVKDYFPEPVTVSWNSGALTSGVHTFPAVLQSSGLYSLSSVVTVPSSNFGTQTYTCNVDHKPSNTKVDKTVERKCCVECPPCPAPPVAGPSVFLFPPKPKDTLMISRTPEVTCVVVDVSHEDPEVQFNWYVDGVEVHNAKTKPREEQFNSTFRVVSVLTVVHQDWLNGKEYKCKVSNKGLPAPIEKTISKTKGQPREPQVYTLPPSREEMTKNQVSLTCLVKGFYPSDIAVEWESNGQPENNYKTTPPMLDSDGSFFLYSKLTVDKSRWQQGNVFSCSVMHEALHNHYTQKSLSLSPGK
light: B13 light
notes: Humanized 108C10A6, human IgG2 with kappa light chain; also called 108VH4.M4_VL1.M1-hlgG2; 108VH4.M4_VL1.M1-hIgG2-Ka

These binders were tested against T1, human CD47 on cells (human, UniProt Q08722 19-323) (assay: flow cytometry on CHO-K1/huCD47 cells; x axis Log(nM), unit taken from the axis).
T1 construct: also called CHO-K1/huCD47; human CD47 over-expressed in CHO-K1 cells
Experimental: (§1) Binding to cell-expressed human CD47 was evaluated on human CD47 over-expressing CHO cells (GenScript, Cat #M00581). Anti-CD47 antibody dilution series was prepared in FACS buffer. CHO-K1/human CD47 cells were transferred to a 96-well U-bottom plate and anti-CD47 antibody dilution was added. […] The cells were then washed twice with wash buffer. Cells were analyzed for binding by FACSCalibur (BD Bioscience, San Jose, Calif.) and Flowjo software.

| Binder | EC50 [nM] |
| --- | --- |
| B1 | 3.48 |
| B2 | 52.5 |
| B3 | 8.21 |
| B4 | 3.47 |
| B5 | 3.15 |
| B6 | 8.59 |

These binders were tested against T1, human CD47 on cells (assay: flow cytometry, blocking of human SIRPα binding to CHO-K1/huCD47 cells).
Experimental: (§2) After 30 minutes incubation at 4° C., cells were washed twice with FACS buffer.

| Binder | IC50 (read off the curve) [nM] |
| --- | --- |
| B2 | ~5 |
| B4 | ~4 |
| B7 | ~2 |
| B6 | ~1 |

What follows are binders tested against T2, cynomolgus monkey CD47 on CHO-K1 cells (cynomolgus monkey, UniProt A0A5F8AK49 19-323 (rhesus entry)) (assay: flow cytometry on CHO-K1/cyno CD47 cells; unit taken from the axis).
T2 construct: whole, on cells; also called CHO-K1/cyno CD47; CHO-K1/cynoCD47
Experimental: (§3) Briefly, binding to cell-expressed cyno CD47 was evaluated on cynomolgus monkey CD47 over-expressing CHO cells. Anti-CD47 antibody dilution series was prepared in FACS buffer. CHO-K1/cynomolgus monkey CD47 cell were transferred to a 96-well U-bottom plate and add CD47 antibody dilution. After 30 minutes incubation at 4° C., cells were washed twice with FACS buffer. […] The cells were washed twice with wash buffer, and then analyzed for binding by using FACSCalibur (BD Bioscience, San Jose, Calif.) and Flowjo software.

| Binder | EC50 [nM] |
| --- | --- |
| B8 | 1.13 |

What follows are binders tested against T1, human CD47 on cells (assay: flow cytometry, blocking of human SIRPα binding to CHO-K1/huCD47 cells; the box on the sheet is labelled EC50; unit taken from the axis).
Experimental: as §2

| Binder | IC50 [nM] |
| --- | --- |
| B1 | 6.97 |
| B3 | 3.74 |
| B5 | 2.98 |
| B9 | 3.4 |
| B8 | 1.07 |

What follows are binders tested against T1, human CD47 on cells (assay: flow cytometry on CHO-K1/huCD47 cells; x axis Log(nM)).
Experimental: as §1

| Binder | EC50 (read off the curve) [nM] |
| --- | --- |
| B10 | ~7 |
| B11 | ~10 |
| B12 | ~5 |

These binders were tested against T3, CD47 protein (assay: ELISA on CD47 protein; x axis is log10 of mAb (ng/ml)).
T3 construct: also called CD47 (ELISA antigen); not shown: The carrier of the coated recombinant protein (an Fc tag as in CD47-Fc, or a His tag as in CD47-His)

| Binder | EC50 (read off the curve) [ng/mL] |
| --- | --- |
| B5 | ~2 |
| B7 | ~5 |
| B11 | ~9 |

The binders below were run against T1, human CD47 on cells (assay: flow cytometry on CHO-K1/huCD47 cells; unit taken from the axis).
Experimental: as §1

| Binder | EC50 [nM] |
| --- | --- |
| B13 | 0.299 |
| B14 | 1.4 |

What follows are binders tested against T2, cynomolgus monkey CD47 on CHO-K1 cells (assay: flow cytometry on CHO-K1/cyno CD47 cells).
Experimental: as §3

| Binder | EC50 (read off the curve) [nM] |
| --- | --- |
| B10 | ~3 |
| B3 | ~2 |
| B7 | ~1 |

What follows are binders tested against T4, human CD47-His protein (human, UniProt Q08722 19-139, limits assumed) (assay: SPR (Biacore T200), antibody captured, human CD47-His as analyte, 1:1 model).
T4 construct: It includes the signal peptide and the membrane-spanning region, which a soluble protein would lack; not shown: His tag

| Binder | Kd [nM] | koff [s⁻¹] | kon [M⁻¹ s⁻¹] |
| --- | --- | --- | --- |
| B6 | 0.74 | 0.00032 | 430000 |
| B13 | 1.4 | 0.00043 | 310000 |
| B14 | 1.5 | 0.00044 | 290000 |

What follows are binders tested against T1, human CD47 on cells (assay: flow cytometry on human red blood cells; unit taken from the axis).

| Binder | EC50 [ng/mL] |
| --- | --- |
| B3 | 9.63 |
| B6 | 55.8 |

Target: T2, cynomolgus monkey CD47 on CHO-K1 cells
Experiment: flow cytometry on CHO-K1/cyno CD47 cells; unit taken from the axis
Remark: another data set of the same source
Experimental: as §3

| Binder | EC50 [nM] |
| --- | --- |
| B2 | 5.75 |
| B4 | 1.45 |
| B5 | 1.81 |
| B9 | 1.53 |
| B6 | 2.03 |
| B12 | 2.01 |

Target: T1, human CD47 on cells
Experiment: flow cytometry, blocking of human SIRPα binding to CHO-K1/huCD47 cells; the box on the sheet is labelled EC50; unit taken from the axis
Remark: another data set of the same source

| Binder | IC50 [nM] |
| --- | --- |
| B13 | 0.911 |
| B14 | 1.87 |

Each binder was assayed against T2, cynomolgus monkey CD47 on CHO-K1 cells (assay: flow cytometry on CHO-K1/cynoCD47 cells; unit taken from the axis).
Experimental: as §3

| Binder | EC50 [nM] |
| --- | --- |
| B13 | 0.262 |
| B14 | 1.31 |

Target: T2, cynomolgus monkey CD47 on CHO-K1 cells
Experiment: flow cytometry on CHO-K1/cyno CD47 cells; unit taken from the axis
Remark: another data set of the same source
Experimental: as §3

| Binder | EC50 [nM] |
| --- | --- |
| B8 | 1.13 |

These binders were tested against T1, human CD47 on cells (assay: flow cytometry on red blood cells; unit taken from the axis).

| Binder | EC50 [nM] |
| --- | --- |
| B13 | 2.62 |
| B14 | 5.51 |

These binders were tested against T3, CD47 protein (assay: ELISA on CD47 protein; x axis is log10 of mAb (ng/ml), unit taken from the axis).

| Binder | EC50 [ng/mL] |
| --- | --- |
| B1 | 3.53 |
| B2 | 1.39 |
| B10 | 3.78 |
| B3 | 2.59 |
| B4 | 4.77 |
| B9 | 9.81 |
| B6 | 62.1 |
| B12 | 23.4 |
